Key:
Assay in all cases: IP/MS, LZTR1 wild type-FLAG, U87
EPG5 = EPG5 (human, UniProt Q9HCE0 1-2579, limits assumed)
Procedure, shortened: (§1)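 Read-out: spectral counts from LC-MS/MS (Orbitrap Fusion) after MaxQuant identification. Variable modifications were Met oxidation, protein N-terminal acetylation and N/Q deamidation.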

FHOD1 = molecular target: T1, FHOD1 (human, UniProt Q9Y613 2-1164)
T1 sequence (looked up): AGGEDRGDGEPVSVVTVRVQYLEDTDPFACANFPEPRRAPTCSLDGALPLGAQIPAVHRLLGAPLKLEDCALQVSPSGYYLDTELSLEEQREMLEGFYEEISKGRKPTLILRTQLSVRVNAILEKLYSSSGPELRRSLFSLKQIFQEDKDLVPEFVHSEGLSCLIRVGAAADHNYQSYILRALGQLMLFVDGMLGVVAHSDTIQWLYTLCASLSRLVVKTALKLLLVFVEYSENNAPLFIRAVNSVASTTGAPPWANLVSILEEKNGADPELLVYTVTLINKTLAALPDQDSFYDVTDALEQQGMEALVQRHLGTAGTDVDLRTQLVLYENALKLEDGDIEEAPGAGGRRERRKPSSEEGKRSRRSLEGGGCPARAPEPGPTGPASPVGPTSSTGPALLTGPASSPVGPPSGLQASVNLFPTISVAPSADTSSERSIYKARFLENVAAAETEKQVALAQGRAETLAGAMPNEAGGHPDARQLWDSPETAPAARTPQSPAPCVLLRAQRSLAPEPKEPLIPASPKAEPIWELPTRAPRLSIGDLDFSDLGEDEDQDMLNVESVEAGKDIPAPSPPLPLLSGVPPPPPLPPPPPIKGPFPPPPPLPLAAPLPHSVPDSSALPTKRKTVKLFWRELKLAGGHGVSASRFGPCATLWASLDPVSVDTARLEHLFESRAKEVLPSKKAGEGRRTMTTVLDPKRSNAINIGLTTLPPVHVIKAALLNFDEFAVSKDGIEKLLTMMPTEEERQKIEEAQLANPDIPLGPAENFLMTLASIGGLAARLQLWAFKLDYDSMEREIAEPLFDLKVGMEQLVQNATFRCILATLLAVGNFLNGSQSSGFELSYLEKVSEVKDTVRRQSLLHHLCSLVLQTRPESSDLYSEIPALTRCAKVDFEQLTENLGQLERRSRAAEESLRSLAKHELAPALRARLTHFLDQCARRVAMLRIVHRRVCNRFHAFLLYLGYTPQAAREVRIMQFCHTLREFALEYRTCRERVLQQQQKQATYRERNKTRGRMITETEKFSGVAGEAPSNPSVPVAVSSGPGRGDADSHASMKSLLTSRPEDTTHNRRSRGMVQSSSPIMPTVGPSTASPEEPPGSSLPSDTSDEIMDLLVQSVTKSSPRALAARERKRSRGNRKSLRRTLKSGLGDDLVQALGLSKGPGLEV
Procedure, shortened: as §1

PARP14 = PARP14 (human, UniProt Q460N5 1-1801, limits assumed)
Chain of PARP14 (Q460N5 whole entry): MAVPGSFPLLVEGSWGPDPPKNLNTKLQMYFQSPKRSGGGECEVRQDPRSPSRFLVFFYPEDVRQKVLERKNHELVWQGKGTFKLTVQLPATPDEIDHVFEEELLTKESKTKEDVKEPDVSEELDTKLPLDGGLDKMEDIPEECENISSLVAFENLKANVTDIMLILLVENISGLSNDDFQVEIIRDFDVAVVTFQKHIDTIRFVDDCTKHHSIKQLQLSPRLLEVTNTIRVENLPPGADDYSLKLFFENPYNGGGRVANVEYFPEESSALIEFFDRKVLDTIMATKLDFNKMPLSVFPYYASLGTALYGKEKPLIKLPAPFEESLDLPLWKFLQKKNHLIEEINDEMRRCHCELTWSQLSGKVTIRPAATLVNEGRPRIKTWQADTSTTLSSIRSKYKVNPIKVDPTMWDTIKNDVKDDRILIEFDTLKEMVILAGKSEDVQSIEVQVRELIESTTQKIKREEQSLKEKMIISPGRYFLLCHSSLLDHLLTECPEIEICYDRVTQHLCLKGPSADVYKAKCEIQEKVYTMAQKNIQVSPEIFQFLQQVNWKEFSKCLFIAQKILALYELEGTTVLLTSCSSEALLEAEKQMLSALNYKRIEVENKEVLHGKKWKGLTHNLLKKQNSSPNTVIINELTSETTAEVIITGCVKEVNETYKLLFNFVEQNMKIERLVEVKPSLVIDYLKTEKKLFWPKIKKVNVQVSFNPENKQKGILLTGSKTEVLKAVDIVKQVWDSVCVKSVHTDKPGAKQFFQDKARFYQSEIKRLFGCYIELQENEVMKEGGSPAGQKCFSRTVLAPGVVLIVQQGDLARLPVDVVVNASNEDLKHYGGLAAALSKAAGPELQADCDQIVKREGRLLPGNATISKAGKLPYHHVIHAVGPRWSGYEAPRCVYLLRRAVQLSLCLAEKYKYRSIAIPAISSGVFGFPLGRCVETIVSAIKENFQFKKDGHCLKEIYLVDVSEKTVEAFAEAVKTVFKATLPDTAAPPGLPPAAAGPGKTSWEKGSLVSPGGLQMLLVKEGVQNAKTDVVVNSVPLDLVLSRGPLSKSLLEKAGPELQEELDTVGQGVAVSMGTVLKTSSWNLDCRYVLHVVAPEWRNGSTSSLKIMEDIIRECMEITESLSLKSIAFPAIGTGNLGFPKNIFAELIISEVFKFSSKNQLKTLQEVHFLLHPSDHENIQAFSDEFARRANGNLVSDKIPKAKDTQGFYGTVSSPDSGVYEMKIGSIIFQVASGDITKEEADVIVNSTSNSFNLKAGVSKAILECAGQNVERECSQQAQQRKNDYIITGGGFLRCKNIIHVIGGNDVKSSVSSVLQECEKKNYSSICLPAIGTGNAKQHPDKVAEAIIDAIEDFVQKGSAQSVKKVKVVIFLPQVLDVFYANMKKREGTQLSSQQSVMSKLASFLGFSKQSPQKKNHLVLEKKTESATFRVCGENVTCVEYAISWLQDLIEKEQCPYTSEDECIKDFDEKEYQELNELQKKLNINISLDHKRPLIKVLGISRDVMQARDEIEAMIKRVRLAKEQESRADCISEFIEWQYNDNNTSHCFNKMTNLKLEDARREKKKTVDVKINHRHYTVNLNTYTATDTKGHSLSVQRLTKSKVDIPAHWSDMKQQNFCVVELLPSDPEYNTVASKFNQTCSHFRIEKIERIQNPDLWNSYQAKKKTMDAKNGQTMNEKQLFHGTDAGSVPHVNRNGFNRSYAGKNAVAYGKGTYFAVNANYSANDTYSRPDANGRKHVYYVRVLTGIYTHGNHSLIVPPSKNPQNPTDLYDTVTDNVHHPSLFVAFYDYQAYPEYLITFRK
Procedure, shortened: as §1

Chain of EPG5 (Q9HCE0 whole entry, the tested form may be a part): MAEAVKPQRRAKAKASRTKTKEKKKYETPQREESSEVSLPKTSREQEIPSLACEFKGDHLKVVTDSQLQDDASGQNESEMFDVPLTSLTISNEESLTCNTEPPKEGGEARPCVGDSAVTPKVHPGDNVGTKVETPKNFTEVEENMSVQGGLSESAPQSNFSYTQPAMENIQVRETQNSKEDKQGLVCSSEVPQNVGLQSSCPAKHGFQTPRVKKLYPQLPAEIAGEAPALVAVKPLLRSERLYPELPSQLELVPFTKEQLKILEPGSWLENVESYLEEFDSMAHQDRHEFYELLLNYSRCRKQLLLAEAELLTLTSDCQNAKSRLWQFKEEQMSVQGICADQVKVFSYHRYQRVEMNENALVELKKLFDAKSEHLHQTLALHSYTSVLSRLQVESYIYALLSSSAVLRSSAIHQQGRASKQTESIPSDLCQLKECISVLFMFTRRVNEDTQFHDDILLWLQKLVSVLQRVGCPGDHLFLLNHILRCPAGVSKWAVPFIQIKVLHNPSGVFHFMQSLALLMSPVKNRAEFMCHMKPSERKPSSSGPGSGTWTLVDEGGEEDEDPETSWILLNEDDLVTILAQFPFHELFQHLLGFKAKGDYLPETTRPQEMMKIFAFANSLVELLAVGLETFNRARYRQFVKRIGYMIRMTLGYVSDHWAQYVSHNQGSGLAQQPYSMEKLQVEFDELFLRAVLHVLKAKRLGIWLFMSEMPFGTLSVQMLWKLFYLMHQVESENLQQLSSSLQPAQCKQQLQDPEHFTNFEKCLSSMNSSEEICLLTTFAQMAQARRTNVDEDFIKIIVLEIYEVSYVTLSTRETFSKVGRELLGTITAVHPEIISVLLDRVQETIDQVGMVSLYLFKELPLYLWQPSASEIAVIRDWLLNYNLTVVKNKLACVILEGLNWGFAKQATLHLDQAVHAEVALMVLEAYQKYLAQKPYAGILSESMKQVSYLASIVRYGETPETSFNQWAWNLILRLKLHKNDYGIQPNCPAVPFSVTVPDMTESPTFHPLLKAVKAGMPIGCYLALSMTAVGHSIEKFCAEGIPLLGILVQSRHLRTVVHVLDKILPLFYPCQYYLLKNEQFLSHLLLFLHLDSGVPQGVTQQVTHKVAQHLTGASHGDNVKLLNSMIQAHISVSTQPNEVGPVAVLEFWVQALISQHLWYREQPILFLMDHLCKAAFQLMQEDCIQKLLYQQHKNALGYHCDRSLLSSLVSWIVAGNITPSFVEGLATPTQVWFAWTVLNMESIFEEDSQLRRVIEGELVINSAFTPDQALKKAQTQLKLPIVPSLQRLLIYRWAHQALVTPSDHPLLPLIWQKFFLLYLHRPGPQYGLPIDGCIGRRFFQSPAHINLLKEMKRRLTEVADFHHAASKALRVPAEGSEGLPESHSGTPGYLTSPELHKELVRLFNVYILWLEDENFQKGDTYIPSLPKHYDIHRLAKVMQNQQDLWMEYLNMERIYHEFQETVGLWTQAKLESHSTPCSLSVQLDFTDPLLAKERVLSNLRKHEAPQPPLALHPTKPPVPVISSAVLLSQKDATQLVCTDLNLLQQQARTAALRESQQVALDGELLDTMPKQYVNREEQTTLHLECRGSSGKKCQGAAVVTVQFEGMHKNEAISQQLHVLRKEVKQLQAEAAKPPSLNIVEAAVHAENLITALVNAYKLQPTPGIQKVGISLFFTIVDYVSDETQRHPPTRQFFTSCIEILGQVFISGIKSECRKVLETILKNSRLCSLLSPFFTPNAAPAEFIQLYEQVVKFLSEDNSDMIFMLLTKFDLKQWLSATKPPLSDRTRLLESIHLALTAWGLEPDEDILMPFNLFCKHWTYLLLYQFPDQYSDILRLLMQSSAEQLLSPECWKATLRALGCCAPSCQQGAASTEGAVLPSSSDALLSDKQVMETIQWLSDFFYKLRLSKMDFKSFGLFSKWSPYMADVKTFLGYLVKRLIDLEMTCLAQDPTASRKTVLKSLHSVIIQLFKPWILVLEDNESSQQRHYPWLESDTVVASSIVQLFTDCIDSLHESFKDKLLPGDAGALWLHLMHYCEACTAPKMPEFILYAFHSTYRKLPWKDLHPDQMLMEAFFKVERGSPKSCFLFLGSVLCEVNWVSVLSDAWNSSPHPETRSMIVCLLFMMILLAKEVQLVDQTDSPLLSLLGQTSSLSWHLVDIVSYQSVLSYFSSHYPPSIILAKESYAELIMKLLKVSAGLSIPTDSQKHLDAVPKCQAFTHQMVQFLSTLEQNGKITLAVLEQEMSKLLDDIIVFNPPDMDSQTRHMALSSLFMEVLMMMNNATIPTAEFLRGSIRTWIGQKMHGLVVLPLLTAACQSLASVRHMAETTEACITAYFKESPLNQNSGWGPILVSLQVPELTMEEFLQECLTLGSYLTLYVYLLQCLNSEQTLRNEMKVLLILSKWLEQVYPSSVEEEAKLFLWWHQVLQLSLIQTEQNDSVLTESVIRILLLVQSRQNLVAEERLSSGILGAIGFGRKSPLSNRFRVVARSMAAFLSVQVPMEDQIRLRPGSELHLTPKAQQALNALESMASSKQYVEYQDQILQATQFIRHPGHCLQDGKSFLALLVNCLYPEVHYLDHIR

binding result (EPG5): binds
binding result (FHOD1): binds
binding result (PARP14): binds
B1: LZTR1-FLAG (other, human, UniProt Q8N653 1-840, looked up)
chain: MAGPGSTGGQIGAAALAGGARSKVAPSVDFDHSCSDSVEYLTLNFGPFETVHRWRRLPPCDEFVGARRSKHTVVAYKDAIYVFGGDNGKTMLNDLLRFDVKDCSWCRAFTTGTPPAPRYHHSAVVYGSSMFVFGGYTGDIYSNSNLKNKNDLFEYKFATGQWTEWKIEGRLPVARSAHGATVYSDKLWIFAGYDGNARLNDMWTIGLQDRELTCWEEVAQSGEIPPSCCNFPVAVCRDKMFVFSGQSGAKITNNLFQFEFKDKTWTRIPTEHLLRGSPPPPQRRYGHTMVAFDRHLYVFGGAADNTLPNELHCYDVDFQTWEVVQPSSDSEVGGAEVPERACASEEVPTLTYEERVGFKKSRDVFGLDFGTTSAKQPTQPASELPSGRLFHAAAVISDAMYIFGGTVDNNIRSGEMYRFQFSCYPKCTLHEDYGRLWESRQFCDVEFVLGEKEECVQGHVAIVTARSRWLRRKITQARERLAQKLEQEAAPVPREAPGVAAGGARPPLLHVAIREAEARPFEVLMQFLYTDKIKYPRKGHVEDVLLIMDVYKLALSFQLCRLEQLCRQYIEASVDLQNVLVVCESAARLQLSQLKEHCLNFVVKESHFNQVIMMKEFERLSSPLIVEIVRRKQQPPPRTPLDQPVDIGTSLIQDMKAYLEGAGAEFCDITLLLDGHPRPAHKAILAARSSYFEAMFRSFMPEDGQVNISIGEMVPSRQAFESMLRYIYYGEVNMPPEDSLYLFAAPYYYGFYNNRLQAYCKQNLEMNVTVQNVLQILEAADKTQALDMKRHCLHIIVHQFTKVSKLPTLRSLSQQLLLDIIDSLASHISDKQCAELGADI
notes: Expressed in HEK 293T, HeLa or U87 cells; used as cell lysate; also called LZTR1 wild type-FLAG; LZTR1 WT; not shown: FLAG tag at the C-terminus

— patent US20250262210A1 (TRUSTEES OF COLUMBIA UNIVERSITY IN THE CITY OF NEW YORK, published 2025)
